Results: patent publication US20080015165A1, “NOVEL POLYPEPTIDE” (KYOWA HAKKO KOGYO CO., LTD., priority 1998, published 2008)

Legend:
[1] = Enzyme activity for a poly-N-acetyllactosamine sugar chain, Namalwa cell extract, HPLC; format: biochemical
Source text: Using a poly-N-acetyllactosamine sugar chain, it was examined that to which GlcNAc in the sugar chains, human Fuc-TIX and 5 types of human α1,3-fucosyltransferase (Fuc-TIII, Fuc-TIV, Fuc-TV, Fuc-TVI, and Fuc-TVII) that had been cloned so far transferred fucose.
Control plasmid (pAMo) and the human Fuc-TIX expression plasmid pAMo-FT9 were introduced into Namalwa cells according to the method shown in Example 1 (3), thereby obtaining stable transformants.
Namalwa cells expressing each of the other 5 types of human α1,3-fucosyltransferases (Fuc-TIII, Fuc-TIV, Fuc-TV, Fuc-TVI, and Fuc-TVII) were obtained according to the previous report (Glycoconjugate J., 13, 802-812, Biochem. Biophys. Res. Commun., 237, 131-137, 1997).
The resultant transformants (about 1×10^7) were collected in microtubes (1.5 ml, manufactured by Eppendolf), followed by centrifugation at 550×g for 7 minutes to collect the cells.
The collected cells were washed with 0.9 ml of PBS. The washed cells were suspended in 100 μl of a solution which consisted of 20 mM HEPES (pH 7.2) and 1% TrironX-100, then allowed to stand at 4° C. for 10 minutes. Subsequently the cells were disrupted using a ultrasonicator (Bioruptor; manufactured by COSMO BIO CO., LTD.)
After disruption of the cells, each supernatant was obtained by centrifugation at 550×g for 7 minutes and used as an enzyme sample. A poly-N-acetyllactosamine sugar chain (Galβ1-4GlcNAcβ1-3Galβ1-4GlcNAcβ1-3Galβ1-4GlcNAc) consisting of 6 sugars was fluorescently labeled with 2-aminobenzamide to make a sugar chain (Galβ1-4GlcNAcβ1-3Galβ1-4GlcNAcβ1-3Galβ1-4GlcNAc-2AB: abbreviated as S in FIGS. 13 and 15, and table 3), which was used as a substrate
Florescent labeling was performed using a Signal™ 2-AB glycan labeling kit (manufactured by Oxford GlycoScience). A poly-N-acetyllactosamine sugar chain (Galβ1-4GlcNAcβ1-3Galβ1-4GlcNAcβ1-3Galβ1-4GlcNAc) was prepared according to WO98/03524.
(§1) Samples were allowed to react in 20 μl of an assay solution [50 mM cacodylate (pH 6.8), 5 mM ATP, 10 mM L-fucose, 75 μM […] (manufactured by SIGMA), 25 mM MnCl2, 15 μM fluorescently labeled sugar chain substrate, 6 μl of the cell lysate above] at 37° C. for 2 hours, followed by treatment at 100° C. for 3 minutes to stop the reaction. Next 200 μl of water was added to the samples, and the supernatant was obtained by centrifugation at 10,000×g for 5 minutes. Using an aliquot of the supernatant (10 μl), products were analyzed by HPLC under the following conditions.
(§2) HPLC: • Column—TSK-gel ODS-80TsQA column (4.6×250 mm; TOSOH CORPORATION) • Eluate—0.02 M ammonium acetate (pH 4.0) containing 7% methanol • Elution temperature—50° C. • Flow rate—1.0 ml/min. • Detection—Fluorescence spectrum photometer FB-920 (manufactured by JASCO Corporation) (excitation wavelength: 330 nm, radiation wavelength: 420 nm)

[2] = Enzyme activity for monofucosylpoly-N-acetyllactosamine sugar chain P2, Namalwa cell extract, HPLC; format: biochemical; details: relative activity with the activity for P2 assumed to be 1
Procedure: as §1, §2

Namalwa cells = experiment: Indirect fluorescent antibody staining of Namalwa cells expressing human Fuc-TIV or Fuc-TIX (VIM-2 and Le^x sugar chains); format: cell-based; details: compared to Namalwa cells transfected with pAMo
Procedure: Using an anti-VIM-2 sugar chain antibody (anti-CDw65 antibody, manufactured by Serotec) and anti-Le^x sugar chain antibodies [73-30 (manufactured by […] CORPORATION) and anti-CD15 antibody (C3D-1, manufactured by Dako)], indirect fluorescent antibody staining was performed for Namalwa cells expressing human Fuc-TIV or human Fuc-TIX, and for Namalwa cells transfected with the control vector pAMo, which were constructed in Example 9. The VIM-2 sugar chain is a sugar chain having the structure consisting of Galβ1-4GlcNAcβ1-3Galβ1-4(Fucα1-3)GlcNAc on non-reduced terminal of a sugar chain.
Indirect fluorescent antibody staining was performed according to the method described in Example 1 (3). Anti-VIM-2 sugar chain antibodies, 73-30 and C3D-1 were used after dilution at 1:50, 1:100, and 1:50.

[3] = In vitro α1,3-fucosyltransferase activity, COS-1 cell lysate, pyridylaminated substrate, HPLC; format: biochemical; details: activity of human Fuc-TVI for α2,3-sialylLNnT taken as 100; 25 μM substrate, 2 hours at 37° C.; normalized to transcript amount
[4] = as above; format: biochemical; details: activity of human Fuc-TVI for α2,3-sialylLNnT taken as 100; 25 μM substrate, 2 hours at 37° C.; normalized to transcript amount; remark: listed apart in the source
Procedure: Each α1,3-fucosyltransferase expression plasmid (15 μg) was introduced into 1×10^7 COS-1 cells.
This introduction was performed by electroporation method using a gene pulser (manufactured by Bio-Rad) according to the Bio-Rad's instructional manual attached thereto. At this time, 1 μg of a luciferase expression vector, which was constructed by inserting β-actin promoter into a Hind III site of a vector pSVOA/L [Experimental Medicine, 7, 96, (1989)] was co-introduced as an index of gene transfer efficiency.
After the gene introduction, COS-1 cells were dispensed into three dishes for cell culture with a diameter of 15 cm and then cultured for 48 hours.
The cells in the remaining two dishes were collected, suspended in a solution (20 mM HEPES (pH 7.4), 2% TrironX-100), then ultrasonicated for a short time period, thereby preparing cell lysate. The protein concentration of the cell lysate was measured using a micro BCA protein assay reagent kit (manufactured by PIERCE).
The enzymatic activities of luciferase and α1,3-fucosyltransferase were measured using the cell lysate. […]
Each of the substrates was allowed to react in assay solution with or without GDP-Fuc (sugar donator), then analyzed with HPLC. […]
The products were detected using a fluorescent spectrum photometer FP-920 (JASCO Corporation) at excitation wavelength of 320 nm and emission wavelength of 400 nm. […]

[5] = relative activity with the activity for P2 assumed to be 1
[6] = substrate S, relative value, total of products P1, P2 and P3 by each enzyme = 100%

Row | Molecule | Enzymatic activity, substrate S, product P1 [1, 5] | Enzymatic activity, substrate S, product P2 [1, 5] | Enzymatic activity, substrate S, product P3 [1, 5] | Production (%) P1 [1, 6] | Production (%) P2 [1, 6] | Production (%) P3 [1, 6] | Enzymatic activity, substrate P2, product P3 [2] | reactivity against the anti-VIM-2 sugar chain antibody (Namalwa cells) | Relative activity of α1,3-fucosyltransferases for substrate LNT [3] | Relative activity of α1,3-fucosyltransferases for substrate α2,3-sialyl LNnT [4]
1 | Fuc-TIV: known human α1,3-fucosyltransferase, previously cloned, expressed in Namalwa cells (protein, UniProt P22083 1-530, looked up) Alpha-(1,3)-fucosyltransferase …: MRRLWGAARKPSGAGWEKEWAEAPQEAPGAWSGRLGPGRSGRKGRAVPGWASWPAHLALAARPARHLGGAGQGPRPLHSGTAPFHSRASGERQRRLEPQLQHESRCRSSTPADAWRAEAALPVRAMGAPWGSPTAAAGGRRGWRRGRGLPWTVCVLAAAGLTCTALITYACWGQLPPLPWASPTPSRPVGVLLWWEPFGGRDSAPRPPPDCRLRFNISGCRLLTDRASYGEAQAVLFHHRDLVKGPPDWPPPWGIQAHTAEEVDLRVLDYEEAAAAAEALATSSPRPPGQRWVWMNFESPSHSPGLRSLASNLFNWTLSYRADSDVFVPYGYLYPRSHPGDPPSGLAPPLSRKQGLVAWVVSHWDERQARVRYYHQLSQHVTVDVFGRGGPGQPVPEIGLLHTVARYKFYLAFENSQHLDYITEKLWRNALLAGAVPVVLGPDRANYERFVPRGAFIHVDDFPSASSLASYLLFLDRNPAVYRRYFHWRRSYAVHITSFWDEPWCRVCQAVQRAGDRPKSIRNLASWFER | 1.6 | 4.1 | 0.5 | 22.2% | 72.0% | 5.8% | 1.0 | significant increase |  | 
2 | Mouse Fuc-TIX: polypeptide of 359 amino acids (SEQ ID NO:1) encoded by mouse Fuc-TIX cDNA; novel α1,3-fucosyltransferase (protein, Mouse, novel α1,3-fucosyltransferase) MTSTSKGILRPFLIVCIILGCFMACLLIYIKPTNSWVFSPMESASSVLKMKNFFSTKTDYFNETTILVWVWPFGQTFDLTSCQAMFNIQGCHLTTDRSLYNKSHAVLIHHRDISWDLTNLPQQARPPFQKWIWMNLESPTHTPQKSGIEHLFNLTLTYRRDSDIQVPYGFLTVSTNPFVFEVPSKEKLVCWVVSNWNPEHARVKYYNELSKSIEIHTYGQAFGEYVNDKNLIPTISTCKFYLSFENSIHKDYITEKLYNAFLAGSVPVVLGPSRENYENYIPADSFIHVEDFNSPSELAKYLKEVDKNNKLYLSYFNWRKDFTVNLPRFWESHACLACDHVKRHQEYKSVGNLEKWFWN |  |  |  |  |  |  |  |  | 0 | 0
